Publication PMC9017247

Tests used:
[1] = biological target: recombinant SARS-CoV-2 spike protein (SARS-CoV-2) (UniProt P0DTC2); experiment: QCM-D; spike protein (400 ug/mL) immobilised by EDC/NHS on an 11-MUA carboxylated gold sensor, ethanolamine-blocked; 0.5-10 uM rGRFT flowed in turn at 20 uL/min, 1x PBS
[2] = biological target: recombinant SARS-CoV-2 spike protein (SARS-CoV-2) (UniProt P0DTC2); experiment: ITC; MicroCal ITC200; 50 uM rGRFT injected (2 uL, 120 s intervals) into the cell with 280 uL of 1 uM spike protein; 1x PBS, pH 7.4

“recombinant griffithsin lectin protein (rGRFT) (from UniProt P84801 1-121) (natural protein)” was tested, and the Kd [1] was 1.6 µM, the Kd [2] was 9.9 µM and the stoichiometry N (rGRFT per spike) [2] was 6.
